# Assay results as given in the nanobody polyreactivity screen of Harvey et al. (2022).
# Experiment: yeast display, Sf9 membrane polyspecificity reagent, FACS + sequencing; frameworks hold sequencing errors
# Procedure, shortened: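 In a synthetic yeast display library (Saccharomyces cerevisiae BJ5465), nanobody expression was induced with galactose for 36–48 hours. FACS gates were set low and high (top ~1%) using anti-HA fluorescence for expression and streptavidin fluorescence for binding of the Sf9 membrane reagent. Each polyreactivity label is drawn from the gate of origin.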
row,Sequence,polyreactivity (PSR sort gate)
1,QVQLVESGGGLVQAGGSLRLSCAASGFTFTSNAMGWYRQAPGKERELVAAITSSGGITYYADSVKGRFTISRDNAKNTVYLQMNSLKPEDTAVYYCAASISSYNSPGYGYWGQGTQVTVSS,low polyreactivity
2,QVQLVESGGGLVQAGGSLRLSCAASGFIFVYYAMGWYRQAPGKERELVAAISGHGGRTYYADSVKGRFTISRDNAKNTVYLQLNSLKPEDTAVYYCAALLYWRGYGYNYWGQGTQVTVSS,high polyreactivity
3,QVQLVESGGGLVQAGGSLRLSCAASGRTYGRNAMGWYRQEPGKDRELVASITKRGGSTYYADSVKGRFTISRDNAKNTVYLQMNSLKPEDTAVYYCAVEAYDYWGQGSQVTVSS,high polyreactivity
4,QVQLVESGGGLVQAGGSLRLSCAASGRTFSTYAMGWYRQAPGKERELVAAISTSGSRTYYADSVKGRFTISRDNAKNTVYFQMNSLKPEDTAVYYCAATPLYYRYYVWQYDYWGQGTQVTVSS,high polyreactivity
5,QVQLVESGGGLVQAGGSLRLSCAASAYNFDGYAMGWYRQAPGKERELVAAINSGGGTYYADSVKGRFTISRDNAKNTVYLQMNSLKPEDTAVYYCAKYTYDYWGQGTQVTVSS,low polyreactivity
6,QVQLVESGGGIDQAGGSLRLICAASGRTFTQYAMRWSRQAHGKERELVAAITRSGGSTYYADSVKGRFTISRDNAKNTVYVLMNILKPEDTAVYYCAKRPAYRSTQTFDFWGQGTQVTVSS,high polyreactivity
7,QVQLVESGGGLVQAGGSLRLSCAASGIIFTKYVMGWYRQAPGKERELVAAINTDGGSTRYADSVKGRFTISRDNAKNTVYLQKNSLKPEDTAVYYCAAVSSRRPGYEYYYWGQGTQVTVSS,high polyreactivity
8,QVQLVESGGVLVQAGGSLRLSCAASGFTFVSNDMGWYRQAPGKERELVAAIRYRGGDTYYADSVKGRFTISRDNAKNTVYLQMNSLKPEDTAVYYCATGKRAYSSYLFDYWGQGTQVTVSS,low polyreactivity
9,QVQLVESGGGLVQAGRSLRLSCAASGITFYKNAMGWYRQAPGKERELVAAISSGGATTYADSVKGRFTISRDNAKNTVYLQMNSLKPEDSAVYYCAAVTRDYRNERRRQRYFYWGQGTQVTVSS,high polyreactivity
10,QVQLVESGGGLVQAGGSLRLSCAASGSIFSTYAMGWYRQAHGKERELVAAISRSGGSTYYADSVKGRFTISRDNAKNTVYLQMNSLKPEDTAVYYCAKVGRRQRYDYWGQGTQVTVSS,high polyreactivity
11,QVQLVESGGGLVQAGGSLRLSCAASGSNFWSNAMRWYRQAPGKERELVATIDDDVGSTYYADSVKGRFTISRDNAKNTVYFQMNSLKPEDTAVYYCAADTSGADAYTKVRDGYDYWGQGTQVSVSS,low polyreactivity
12,QVQLVESGGGLVQAGGSLRLSSAASGRIFFHNAMGWCRQAPGKDRELVAAIRSSTGSTYYADSVKGRFTISRDNAKNTVYLQMNSLKPEDNAVYYCAARSYDKYSRRVWGLGYWGQGTQVTVSS,high polyreactivity
13,QVQLVESGGGLVQAGGSLRLSCAASGSIFKQNAMGWYRQAPGKERELVASIRASGDRTYYADSVKGRFTISRDNAKNPVYLQMNSLKPEDSAVYYCAARRVRTRGYNYWGQGTQVTVSS,high polyreactivity
14,QVQLVESGGGLVQAGGSLRLSCAASGLTFYVNARGWYRQAPGKERELVATISGSGSTNYADSVKGRFTISRDNAKNTVYLQMNSLKPEDTAVYDCNAGWAQDPSNYWGQGTQVTVSS,high polyreactivity
15,QVQLEESGGGLVQAGGSLRLSCAAYGSIFYKNAMGWYRQAPGKERELVAAITYSGGSTYYADSVKGRFTISRDNAKKTVYLQMNSLKPEDTAVYYCAADIGVYGERREEEYDYWGQGTQVTVSS,low polyreactivity
16,QVQLVESGGGLVQAGGSLRLSCAASGFIFNTNAMGWYRQAPGKERELVAGISRSGVRTYYADSVKGRFTISRDNAKNTVFLQMNSLKPEDTAVYYCAATSLPRYYYWGQGTQVTVSS,low polyreactivity
17,QVQLVESGGGLVQAGGSLRLSCAASGGIFYLYAMGWYRQAPGKERELVAAISWSGTSTYYADSVKGRFTISRDNAKNTVYLQMNSLKPEDTAVYYCAADYERYYAKAINYDYWGQGTQVTVSS,low polyreactivity
18,QVQLVESGGRLVQAGGSLRLSCAASGNILRFNALGWYRQAPGKEWQLVAAISRSGGTTYFADSVKGRFTISRDTAKNTVYLQMNSLKPEDTAVYYCAARSRYGESPGYYWGQGTQVTVSS,high polyreactivity
19,QVQLVESGGGLVQAGGSLRLSCAASGSTFVWNAMGGYRQAPGKERELVAAITNDGRTNYADSVKGRFTISRDNAKNTVYLQMNSRKPEDTAVYYCNADGYNSYWWNYYWGQGTQVTVSS,low polyreactivity
20,QVQLVESGARLVQEGGSLRLSCAASGSIFGRYVMGGYRQEPGKEREFVAAITYSGSSTYYADSVKGRFTISRDNAKNTVYLQMNSLKPEDSAVYYCNTYPGSFYWMGYWGQGTQVTVSS,high polyreactivity
21,QVQLVESGGGLVQAGGSLRLSCAASGRIIRYYAMGWYRQAPGKERELVATISRSGGSTFYADSVKGRFTISRDNAKNTVYLQMNSLKPEDTAVYYCNARYQTGGYGYWGQGTQVTVSS,high polyreactivity
22,QVQLVESGGGLVQAGGRLRLSCAASGSTSQSNAMGWYRQAPGKERELVAAISWSGTSTYYADSVKGRFTISRDNAKNTVYLQMNSLKPEDTAVYYCAADYIFDYDYWGQGTQVTVSS,low polyreactivity

row,Sequence,polyreactivity (PSR sort gate)
1,QVHLVESGGGLVQAGGSLRLSCPASGRIFAIYAAMGWTRQAPGKERELVAAISSGDNTNYADSVKGRFTISRDNAKNTVYLQLNSLKPDDTAVYYCNTNYGPTHRARYYYWGQGTQVTVSS,low polyreactivity
2,QVQLVESGGGLVQAGGSLRLSCAASGSTLDSYAMGSYRQAPGKERELVAAISGSGGSTYYADSVKGRFTISRDNAKNTVYLEMNSLKPEDTAVYYCDTDYSTQTLGYWYDYWGQGTQVSVSS,low polyreactivity
3,QVQLLESGGGLVQAGGSLRLSCAASGSIFYPYALGWYRQAPGKERELVAGISRSGASTYYADSVKGRFTISRDKAKNTVYLQMNSLKPEDTAVYYCAADDWTRNYWGQGTQVTVSS,low polyreactivity
4,QVQLVESGGGLVQAGGSLRLSCAASGSISGINAMGWYRQAPGKERELVAAISRRAGSTYYADSVKGRFTISRDNAKNTVYLQMNSLKPEDTAVYYCAAENFYPYTYYASDYWGQGTQVTVSS,high polyreactivity
5,QDQHVESGGGLVQAGGSLRLICAASGFIFVTNTMGWYRQAPGTEWELVAAIRWSGGTTYYADSVKGRFTISRDNAMQTVYLQMNSLKPEDTAFYYCAARYGSRSSYLAYYYWGQGTQVTVSS,high polyreactivity
6,KVQLVESGGGLVQAGGSLRLSCAASGRTFVYYAMGWYRQAPGKERELVAAISSGGSTNYADSVKGRFTISRDNAKNTVYLQMNSLKPEDTAVYYCNADWGFPDVKETGVRFDYWGQGTQVTVSS,low polyreactivity
7,QVQLVESGGGLVQAGGSLRLSCAASGIIFNSNAMGWYRQAPGKERELVAAISVSGGSTYYADSVKGRFTISRDNAKNTVYLQMYSLIPEDTAVYYCNARSLYPWRWKKEYGHWGQGTQVTVSS,high polyreactivity
8,QVQLVESGGGLVQAGGSLRLSCAASGFIFDDYARGWYRQAPGKERELVADIDYSGGSRYYADSVKGRFTISRDNAKNPVYLQMTSLKPEETAVYYGTAYYGILYYLLDYWGQGTQVTVSS,high polyreactivity
9,QVQLVESGGRLVQAGGSHRIRCAASGFIFWYYAMGWYRPAPGKERELVAGITTGGSTNYADSVKGRFTISRDNAKNTVYLEMNSLKPEDTAVYYCNADPTYQVGYDYWGQGTQVTVSS,low polyreactivity
10,QVQLVESGGGLVQAGGSLRLSCAASGRIFVTYAMGWYRQAPGKERELVAVISWSGGSTYYADSVKGRITISRDNAKNTVYLQINSLKPEDTAVYYCARGLRKVRFDYWGQGTQVTVSS,low polyreactivity
11,QVQLVESGGGLVQAGGSLRLSCAASGFIFPYNAMGWYRQAPGKDRELVAAISWSGSNTYYADSVNGRFTISRDNAMNTVYLQMNSLKPEDTAVYYCAARHSVYYFVQRNGRYGYWGQGTQVTVSW,high polyreactivity
12,QVQLVESGGGLLQAGGSLRLSCAASGRTFSYYAMGWYRQAPGKERELVAAISWRGGSTYYADSVKGRFTISRDNAKNTVYLQMNSLKPEDTAVYYCAALPRYALGEDYWGQGSQVTVSS,high polyreactivity
13,QVQLVESGGGLVQAGGSLRLSCAASGFTFSSYAMGWYRQAPGKERELVAAISTRGGSTYYADSVKGRFTISRDNAKNTVYLQMNSLKPEETAVYYCAARYGTSYKVRWTYYAFDYWGQGTQVTVSS,low polyreactivity
14,QVQLVESGGGLVQAGGRLRLSCAASGRIFVRYVMGWYRQAPGQERALVAAISSSGGSTYYADSVKGRYTISRDTAKKTVYLQMNSLKPEDTAVYYCATDLIDKYFLPYDYWGQGTQVTVSS,low polyreactivity
15,QVQLVESGGGLVQAGGSLRLSCASSGRTFLRYTMGWYRQAPGKERELVAAISYRGGTTYYADSVKGRFTISRDNGKNTVYLEMNSMKADETGVYYCAARNVGRTGSDFWGQGTQVTVSS,low polyreactivity
16,QVQLVESGGGLVQAGGSLRLSCAASGSTFYVNTLGWYRQAPGKERELVAAISGSGTSTYYADSVKGRFTISRDNAKNTVYLQMNSLKPEDTAVYYCNKYQLVRTYGSYSYYYWGQGTQVTVSS,high polyreactivity
17,QVQLVESGGGLVQAGGSLRFICAASGFLFRAYTMGWYRQAPGKERELVAAITSSGGRTYYADSVKGRFSISRDNAKNTVFLQMNSLKPEDTAVYYCATVYAKWKQFDSWGQGTQVNVSS,high polyreactivity
18,QVQLVESGGGLVQAGGSLRLSCAASGSTIRSYAMGWYRQATRKERELVARIAYSSGRTYYADSVKGRFTISRDNAKNTVYLQMNSLKPEDTAVYYCAVRGYGYGYDYWGQGTQVTVSS,high polyreactivity
19,QVQLVESGGGLVQAGGSLRLSCAASGRIFGPYAMGWYRQAPGKERELVAAIRASSSSTYYADSVKGRFTISRDNAKNTVYVQMNSLKPEDTAVYYCAADWYYGYAWKYGYWGQGTQVTVSS,low polyreactivity
20,QVQLVESGGGLVQAGGSLRLSCAASGRTFRYYAMGWYRQAPGKERELVAAIDTSSGSTYYADSVKGRFTISRDNAKNTVYLQMKSLKPEDTAVYYCNATWWIPLFYDYWGQGTQVTVSS,low polyreactivity
21,QVHLVESGGGLVQAGGSLRLSCAASGGTIAFNGMGWYRQAPGKDRELVAAITWRSGSTYYADSVKGRFTISRDNPKNPVYLQMNSLKPDDTAVYYCNAARAVYTQKRFDSWGQGTQVTVSS,high polyreactivity
